Experimental data reported in paper doi:10.1101/2019.12.17.868638.

Target: Rl-SRDI565 sulfoquinovosidase, K375A/K376A variant (RlSQase*) (Rhizobium leguminosarum bv. trifolii SRDI565)
Assay: SEC-MALS

stoichiometry N: 2
Substance: Rl-SRDI565 sulfoquinovosidase, K375A/K376A variant (RlSQase*) (enzyme)
